Experimental data published in patent US20250205324A1, “ANTIGENIC PEPTIDES FOR PREVENTION AND TREATMENT OF CANCER” (ENTEROME S.A., priority 2022, published 2025).

target: T1, HLA-A*0201 molecule expressed on human T2 cells (human); assay: T2 cell HLA-A*0201 binding assay, anti-HLA-A2-PE flow cytometry
T1 construct: surface HLA-A2 detected with anti-HLA-A2-PE (clone REA517); also called HLA-A2
Method: T2 cells (5·10⁴ cells per well) are incubated with decreasing concentrations of peptides from 100 μM to 0.1 μM (4 points: 100 μM, 10 μM, 1 μM, 0.1 μM) in serum-free medium (TexMacs) supplemented with 100 ng/μl of 2 Microglobulin at 37° C. for 16 hours. Cells are then washed two times and marked with the anti-HLA-A2 antibody coupled to PE (clone REA517, Miltenyi).
For each peptide concentration, the geometric mean of the labelling associated with the peptide of interest is subtracted from background noise and reported as a percentage of the geometric mean of the HLA-A*0202 labelling obtained for the reference peptide HIV pol 589-597 at a concentration of 100 μM.

Row | Binder | concentration of peptide that induces 20% of HLA-A2 expression | in vitro binding affinity (relative affinity, normalized against HIV-pol) | mean relative fluorescence intensity at 0.1 µM peptide | mean relative fluorescence intensity at 1 µM peptide | mean relative fluorescence intensity at 10 µM peptide | mean relative fluorescence intensity at 100 µM peptide
1 | IVWSDVTYV (also called ENT187_B1) [MMP11-B1] | 0.08 µM | 0.07 ratio to HIV pol reference peptide | 19.8 % of HIV pol reference peptide | 73.3 % of HIV pol reference peptide | 97.1 % of HIV pol reference peptide | 80.2 % of HIV pol reference peptide
2 | KVWSDVTPL [MMP11-H1] | 0.65 µM | 0.6 ratio to HIV pol reference peptide | – | 24.9 % of HIV pol reference peptide | 72.7 % of HIV pol reference peptide | 82.5 % of HIV pol reference peptide
3 | AVIGIVAAV (also called ENT190_B1) [OR51E2-B1] | 0.7 µM | 0.8 ratio to HIV pol reference peptide | 3.5 % of HIV pol reference peptide | 25.4 % of HIV pol reference peptide | 59.3 % of HIV pol reference peptide | –
4 | AQIGIVAVV [OR51E2-H1] | 5.68 µM | 6.2 ratio to HIV pol reference peptide | 0 % of HIV pol reference peptide | 4 % of HIV pol reference peptide | 32 % of HIV pol reference peptide | –
5 | ALIFGQLLL (also called ENT205_B1; ENT_205-B1) [TOP2A-B2] | 1.79 µM | 2.9 ratio to HIV pol reference peptide | 3.4 % of HIV pol reference peptide | 5.5 % of HIV pol reference peptide | 73.6 % of HIV pol reference peptide | 146 % of HIV pol reference peptide
6 | ALIFGQLLT (also called ENT205-H) [TOP2A-H2] | – | – | 5.1 % of HIV pol reference peptide | 0.3 % of HIV pol reference peptide | 3.2 % of HIV pol reference peptide | 0 % of HIV pol reference peptide
7 | SLPDRILTV (also called ENT204_B1; ENT_204-B1) [CDC20-B1] | – | 0.6 ratio to HIV pol reference peptide | – | – | – | –
8 | SLPDRILDA (also called ENT204-H) [CDC20-H1] | – | 6.3 ratio to HIV pol reference peptide | – | – | – | –
9 | ALNPELLAL (also called ENT207_B1; ENT_207-B1) [KIF2C-B1] | – | 1.6 ratio to HIV pol reference peptide | – | – | – | –
10 | QMNPELLTL (also called ENT207_B2) [KIF2C-B11] | – | 3.9 ratio to HIV pol reference peptide | – | – | – | –
11 | VMNPELLLL (also called ENT207_B3) [KIF2C-B12] | 0.258 µM | 1.1 ratio to HIV pol reference peptide | 9.8 % of HIV pol reference peptide | 41.4 % of HIV pol reference peptide | 84.7 % of HIV pol reference peptide | 67.7 % of HIV pol reference peptide
12 | VLNPELLML (also called ENT207_B4) [KIF2C-B13] | 0.189 µM | 0.8 ratio to HIV pol reference peptide | 10.5 % of HIV pol reference peptide | 42.1 % of HIV pol reference peptide | 45.3 % of HIV pol reference peptide | 50.3 % of HIV pol reference peptide
13 | AINPELLQL (also called ENT207-H) [KIF2C-H1] | 22.6 µM | 31.1 ratio to HIV pol reference peptide | 0 % of HIV pol reference peptide | 0.4 % of HIV pol reference peptide | 9.5 % of HIV pol reference peptide | 64.9 % of HIV pol reference peptide
14 | FLYDVRTYL (also called ENT168_B1; ENT_168-B1) [UBE2C-B1] | – | 3.1 ratio to HIV pol reference peptide | – | – | – | –
15 | YLYDVRTAL (also called ENT168_B2) [UBE2C-B11] | 0.87 µM | 0.7 ratio to HIV pol reference peptide | 6.6 % of HIV pol reference peptide | 22.2 % of HIV pol reference peptide | 68.4 % of HIV pol reference peptide | 87.5 % of HIV pol reference peptide
16 | ALYDVRTIL (also called ENT168-H) [UBE2C-H1] | 15 µM | 8.8 ratio to HIV pol reference peptide | 3.8 % of HIV pol reference peptide | -0.2 % of HIV pol reference peptide | 6.8 % of HIV pol reference peptide | 134 % of HIV pol reference peptide

Row | Binder | concentration of peptide that induces 20% of HLA-A2 expression | in vitro binding affinity (relative affinity, normalized against HIV-pol) | mean relative fluorescence intensity at 0.1 µM peptide | mean relative fluorescence intensity at 1 µM peptide | mean relative fluorescence intensity at 10 µM peptide | mean relative fluorescence intensity at 100 µM peptide
17 | ALYDVRTILL (also called UBEC2-H11; ENT168-HL) [UBE2C-H11] | 14.9 µM | 8.7 ratio to HIV pol reference peptide | 4.2 % of HIV pol reference peptide | -2.3 % of HIV pol reference peptide | 8.9 % of HIV pol reference peptide | 135 % of HIV pol reference peptide
18 | SLLSIQSYV (also called ENT172_B1) [UBE2C-B2] | 0.22 µM | 0.2 ratio to HIV pol reference peptide | 14.2 % of HIV pol reference peptide | 52 % of HIV pol reference peptide | 92 % of HIV pol reference peptide | –
19 | ILLSIQSLL [UBE2C-H2] | 3.27 µM | 3.5 ratio to HIV pol reference peptide | 2.1 % of HIV pol reference peptide | 8.5 % of HIV pol reference peptide | 32.7 % of HIV pol reference peptide | –
20 | YLQQELMNL (also called ENT178_B1) [UBE2C-B3] | 0.14 µM | – | – | – | – | –
21 | RLQQELMTL [UBE2C-H3] | 1.06 µM | 1.1 ratio to HIV pol reference peptide | 1.3 % of HIV pol reference peptide | 12.3 % of HIV pol reference peptide | 71.5 % of HIV pol reference peptide | 82.4 % of HIV pol reference peptide
22 | ALYSEILTV (also called ENT169_B1; ENT_169-B1) [ANKRD30A-B1] | 0.05 µM | 0.04 ratio to HIV pol reference peptide | 33.3 % of HIV pol reference peptide | 77.2 % of HIV pol reference peptide | 93.7 % of HIV pol reference peptide | 88.2 % of HIV pol reference peptide
23 | AVYSEILSV (also called ENT169-H) [ANKRD30A-H1] | 0.65 µM | – | – | – | – | –
24 | LILDTVHSL (also called ENT174_B1) [ANKRD30A-B2] | 1.13 µM | 1.3 ratio to HIV pol reference peptide | 1.7 % of HIV pol reference peptide | 12.4 % of HIV pol reference peptide | 72 % of HIV pol reference peptide | 90.8 % of HIV pol reference peptide
25 | KILDTVHSC [ANKRD30A-H2] | 25.3 µM | 29.9 ratio to HIV pol reference peptide | 1.2 % of HIV pol reference peptide | 1.8 % of HIV pol reference peptide | 8.7 % of HIV pol reference peptide | 52.3 % of HIV pol reference peptide
26 | TLDQKLFMV (also called ENT180_B1) [ANKRD30A-B3] | 0.14 µM | 0.2 ratio to HIV pol reference peptide | 18.8 % of HIV pol reference peptide | 67.5 % of HIV pol reference peptide | 120 % of HIV pol reference peptide | 112 % of HIV pol reference peptide
27 | SLDQKLFQL [ANKRD30A-H3] | 0.32 µM | 0.4 ratio to HIV pol reference peptide | 5.9 % of HIV pol reference peptide | 41.9 % of HIV pol reference peptide | 99.1 % of HIV pol reference peptide | 97.1 % of HIV pol reference peptide
28 | YLILEYATV (also called ENT199_B1) [AURKA-B1] | 1.16 µM | – | – | – | – | –
29 | YLILEYAPL [AURKA-H1] | 12.2 µM | 22.8 ratio to HIV pol reference peptide | 0 % of HIV pol reference peptide | 0 % of HIV pol reference peptide | 13.1 % of HIV pol reference peptide | 164 % of HIV pol reference peptide
30 | KIIGIILAV (also called ENT176_B1; ENT_176-B1) [CDH17-B1] | 0.2 µM | – | – | – | – | –
31 | LVIGIILAV (also called ENT176-H) [CDH17-H1] | 14.1 µM | 14.9 ratio to HIV pol reference peptide | 0.5 % of HIV pol reference peptide | 3.7 % of HIV pol reference peptide | 17.6 % of HIV pol reference peptide | –
